Laboratory results from patent US20210214440A1 (Janssen / Centocor, published 2021).
Where a chain is given by its changes, count along the chain named.

B1: CD8B268 (antibody, human IgG1, kappa, V domains shown)
VH: QVQLQQSGAELVKPGASVKLSCKASGYTFTVYTIHWVKQRSGQGLEWIGWFYPGSGNIKYNEKFKDKATLTADKSSHTVYMELSRLTSEDSAVYFCARHEDNHYYDGNSWFAYWGQGTLVTVSA
VL: DIQMTQSPASLSASVGQTVTITCRASGNIHNYLAWFQQKQGKSPQLLVYNAKTLADGVPSRFSGSGSGTQYSLKINSLQTEDFGNYYCQHFWNTPYTFGGGTKLEIKR
notes: full-length human IgG1, kappa
B2: CD8B240 (antibody, human IgG1, kappa)
heavy: not shown
light: DIVMTQSPATLSVTPGDRVSLSCRASQSISDFLHWYQQKSHESPRLLIKYASQSISGIPSRFSGSGSGSDFTLTINSVEPEDVGVYYCQNGHSFPYTFGSGTKLEIKRTVAAPSVFIFPPSDEQLKSGTASVVCLLNNFYPREAKVQWKVDNALQSGNSQESVTEQDSKDSTYSLSSTLTLSKADYEKHKVYACEVTHQGLSSPVTKSFNRGEC
notes: full-length human IgG1, kappa
B3: CD8B191 (antibody, human IgG1, kappa)
heavy: not shown
light: B2 light with M4L
notes: full-length human IgG1, kappa
B4: CD8B364 (antibody, human IgG1, kappa, V domains shown)
VH: QVQLQQPGAELVKPGASVKLSCKASGYTFTSYWMHWVNRRPGQGLEWIGEINPSNGDSYYNEKFKRKATLTVDISSSTAYMQLSSLTSEDSAVYYCTRSMYYDGRAGAYWGQGTTVTVSS
VL: DIVLTQSPASLSVATGEKVTIRCITSTDIDDDMNWYQQKPGEPPKLLISEGNTLRPGVPSRFSSSGYGTDFVFTIENTLSEDVADYYCLQSDNMPLTFGAGTKLELKR
notes: full-length human IgG1, kappa
B5: CD8B200 (antibody, human IgG1, kappa, V domains shown)
VH: EVQLQQSGAELVKPGASVKLSCKASGYTFTNYWIHWVKQRPGQGLEWIGNIDPSDSETHYNQKFKDKATLTVDKSSSTAYMQLISLTSEDSAVYYCASGLTGTGYYWGQGTTLTVSS
VL: DIQMTQTTSSLSASLGDRVTITCRASQDISPYLNWYQQKPEGTIKLLIYYTSKLHSGVPSRFSGSGSGTDYSLTISNLEQEDIATYFCQQDNTLPYTFGSGTKLELKR
notes: full-length human IgG1, kappa
B6: CD8B246 (antibody, human IgG1, kappa, V domains shown)
VH: QVQLKESGPGILKPSQTLSLTCSFSGFSLSTSGMNVGWIRQPSGKGLEWLAHIWWDDDKYYNPSLKSQLTISKDTSRNQVFLKITSVDTADTATYYCARRGNYGNYEFAYWGQGTTLTVSS
VL: B5 VL with T22S, S30R, P31N, E41D, I44V, Y50H, K53R, D91G, Y96W, S100A
notes: full-length human IgG1, kappa
B7: CD8B270 (antibody, human IgG1, kappa, V domains shown)
VH: B5 VH with E1Q, S7P, K19M, I34M, I84S
VL: B5 VL with S30R, Y50F
notes: full-length human IgG1, kappa
B8: CD8B304 (antibody, human IgG1, kappa, V domains shown)
VH: B6 VH with Q3T, L117V
VL: DIQMTQTTSSLSASLGDRVTISCRASQDIRNYLNWYQQKPDGTVKLLIYHTSRLHSGVPSRFSGSGSGTDYSLTISNLDQEDIATYFCQQGNTLPWTFGAGTKLELKR
notes: full-length human IgG1, kappa
B9: CD8B213 (antibody, human IgG1, kappa, V domains shown)
VH: EVQLQQSGPELVKPGDSMKMSCKASGYIFTDYYMDWVKQSHGKSLEWIGYIYPNNGITSYNQKFKGRATLTIDKSSSTAYMELHSLTSEDSAVYYCARSIYYDHGGGFPYWGQGTSVTVSS
VL: DIVLTQSQKFMSTSVGDRVSVTCKASQNVDKYVAWYQQKPGQSPKALIYSASYRYSGVPDRFTGSGSGTDFTLTISNVQSEDLAEYFCQQYNTYPSFGSGTKLEMKR
notes: full-length human IgG1, kappa
B10: CD8B361 (antibody, human IgG1, kappa, V domains shown)
VH: EVQLQQSGPELVKPGNSVKMSCKASGYTFTDYYMDWVKQSHGTSLEWIGYIYPNNGDTRYNQKFKDKATLTVDKSSSTAYMELHSLTSEDSAVFYCARSIYYDHGGGFPYWGQGTLVTVSA
VL: B9 VL with L4M, D30G, K31T, S76N, F87L, T93S, S96T, S99G, K102R, M105I
notes: full-length human IgG1, kappa

These binders were tested against T1, human CD8 on human pan T cells (human, UniProt P01732 22-235; P10966 22-210) (assay: flow cytometry, 20 nM mAb on human pan T cells).
T1 construct: Native CD8 on the CD4-negative population of human pan T cells
Method: Secondary antibodies were A647-conjugated goat anti human IgG Fc antibody at 2 μg/mL, and A488-conjugated mouse anti-human CD4 at 1 μg/mL in staining buffer. Live cells were also gated based on OKT8 control mAb binding. Percent CD8 positive population was calculated by percentage of CD8-positive cell count/live cell count.

T1 sequence (P01732 22-235, chain 1 of 2): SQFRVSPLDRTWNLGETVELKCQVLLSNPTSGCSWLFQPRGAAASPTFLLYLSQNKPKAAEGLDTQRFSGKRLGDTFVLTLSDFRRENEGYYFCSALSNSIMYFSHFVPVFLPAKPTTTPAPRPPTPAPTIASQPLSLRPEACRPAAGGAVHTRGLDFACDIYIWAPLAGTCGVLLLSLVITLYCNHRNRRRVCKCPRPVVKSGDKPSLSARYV
T1 sequence (P10966 22-210, chain 2 of 2): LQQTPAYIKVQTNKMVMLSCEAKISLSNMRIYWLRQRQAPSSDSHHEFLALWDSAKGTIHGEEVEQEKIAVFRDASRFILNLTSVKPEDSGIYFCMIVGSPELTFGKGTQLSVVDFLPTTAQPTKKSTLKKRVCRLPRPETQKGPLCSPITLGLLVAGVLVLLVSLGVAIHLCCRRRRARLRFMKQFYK

Cell Binding to Human PanT Signal/Background (of CD4 negative population)	Binder
1170	B1
1310	B2
2440	B3
1560	B4
1990	B5
1110	B6
2500	B7
923	B8
827	B9
1050	B10
